The target in series [1] is T1, DNA polymerase beta (Pol β) (Homo sapiens, UniProt P06746 1-335). Briefly: single-molecule TIRF; 2.5 mM EDTA; mean lifetimes T2 7.4 s, T3 33.7 s; 50 mM Hepes pH 7.4, 150 mM NaCl, 0.1 mg/ml BSA, 0.8% glucose, 2.5 mM EDTA, ~10 mM Trolox, catalase 0.04 mg/ml, glucose oxidase 1 mg/ml; room temperature; protei.
Series [2] concerns the target T2, APE1 (Homo sapiens, UniProt P27695 1-318). Put plainly: single-molecule TIRF; 2.5 mM EDTA; mean lifetime T2 12.4 s; 50 mM Hepes pH 7.4, 150 mM NaCl, 0.1 mg/ml BSA, 0.8% glucose, 2.5 mM EDTA, ~10 mM Trolox, catalase 0.04 mg/ml, glucose oxidase 1 mg/ml; room temperature; protein 0.1 nM (binary) or 1.5 nM each (ternary). The conditions noted are these: protein: recombinant; tags: Cy3 NHS ester dye (about 2.1-2.4 labels per protein); label: 5'-biotin on strand 1 (immobilized); blunt outer ends; nicked.

Series [3] addresses T2, APE1. Put plainly: single-molecule TIRF; 2.5 mM EDTA; mean lifetime T2 22.8 s; 50 mM Hepes pH 7.4, 150 mM NaCl, 0.1 mg/ml BSA, 0.8% glucose, 2.5 mM EDTA, ~10 mM Trolox, catalase 0.04 mg/ml, glucose oxidase 1 mg/ml; room temperature; protein 0.1 nM (binary) or 1.5 nM each (ternary). The conditions noted are these: protein: recombinant; tags: Cy3 NHS ester dye (about 2.1-2.4 labels per protein); label: 5'-biotin on strand 1 (immobilized); blunt.

For series [4], the target named is T2, APE1. Put plainly: single-molecule TIRF; 2.5 mM EDTA; mean lifetimes T2 4.3 s, T3 30.9 s; 50 mM Hepes pH 7.4, 150 mM NaCl, 0.1 mg/ml BSA, 0.8% glucose, 2.5 mM EDTA, ~10 mM Trolox, catalase 0.04 mg/ml, glucose oxidase 1 mg/ml; room temperature; protein 0.1 nM (binary) or 1.5 nM each (ternary). The conditions noted are these: protein: recombinant; tags: Cy3 NHS ester dye (about 2.1-2.4 labels per protein); label: 5'-biotin on strand 1 (immobilized); blunt outer ends; 1-nt gap opposite G of template.

Series [5] deals with T1, DNA polymerase beta (Pol β). Put plainly: single-molecule TIRF; 2.5 mM EDTA; mean lifetime T2 19.8 s; 50 mM Hepes pH 7.4, 150 mM NaCl, 0.1 mg/ml BSA, 0.8% glucose, 2.5 mM EDTA, ~10 mM Trolox, catalase 0.04 mg/ml, glucose oxidase 1 mg/ml; room temperature; protei.

B1: 3' nick 25-mer (dsDNA)
DNA 1: TGTGTGGAATACAGTGAGCGCAACG
DNA 2: CGTTGCGCTCAC
DNA 3: TGTATTCCACACA
modifications: 5'-phosphate on 13-mer; 3'-OH on 12-mer
For the molecule B1, the binding result in series [1] and in series [2] was “binds” each time.

B2: undamaged DNA 25-mer (dsDNA)
DNA 1: TGTGTGGAATACAGTGAGCGCAACG
DNA 2: CGTTGCGCTCACTGTATTCCACACA
For the molecule B2, the binding result in series [3] is reported as “binds”.

B3: 1-nt gap 25-mer (dsDNA)
DNA 1: TGTGTGGAATACAGTGAGCGCAACG
DNA 2: CGTTGCGCTCA
DNA 3: TGTATTCCACACA
modifications: 5'-phosphate on 13-mer
Turning to B3, the binding result in series [4] and in series [5] was “binds” throughout.

Source of the values: PMC10148159, “Visualizing the coordination of apurinic/apyrimidinic endonuclease (APE1) and DNA polymerase β during base excision repair”.
